Results: publication PMC10440475 (Heliyon, 2023)
Several values for one entry are separate records, joined by “and”; a condition that tells them apart may be missing. Equal entries are not always repeated.

Biological target: the molecule itself
Assay: PFO-PAGE

B1: ORF3aΔN-eGFP (N-terminus truncated SARS-CoV-2 ORF3a with C-terminal eGFP) (domain or fragment)
chain: PFGWLIVGVALLAVFQSASKIITLKKRWQLALSKGVHFVCNLLLLFVTVYSHLLLVAAGLEAPFLYLYALVYFLQSINFVRIIMRLWLCWKCRSKNPLLYDANYFLCWHTNCYDYCIPYNSVTSSIVITSGDGTTSPISEHDYQIGGYTEKWESGVKDCVVLHSYFTSDYYQLYSTQLSTDTGVEHVTFFIYNKIVDEPEEHVQIHTIDGSSGVVNPVMEPIYDEPTTTTSVPL
  stoichiometry N: 5 and 2 and 3 and 4
